Columns and labels:
L-pY peptide = L-pY peptide (phosphotyrosine (pY) at the fourth residue; 5-carboxyfluorescein on the N-terminus; C-terminal amide); test: ITC
AS25 = target: T1, AS25 (synthetic construct (Homo sapiens …)); test: ITC
T1 chain: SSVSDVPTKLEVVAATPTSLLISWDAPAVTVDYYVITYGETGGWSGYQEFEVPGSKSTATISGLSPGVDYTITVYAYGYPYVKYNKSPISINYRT

B1: synthetic L-Bcr-Abl SH2 domain (domain or fragment)
chain: KKKKKSGVNSLEKHSWYHGPVSRNAAEYLLSSGINGSFLVRESESSPGQRSISLRYEGRVYHYRINTASDGKLYVSSESRFNTLAELVHHHSTVADGLITTLHYPAPKRNK
modifications: biotinylated (position of the biotin not stated in the text shown)
Q: Which Kd (L-pY peptide) does the source give for B1 here?
A: Its Kd is 4890 nM.

Q: And the Kd (AS25)?
A: The Kd was 184 nM.

Source: paper PMC9347351 (2022)
